Measurements from patent publication US12012599B2, “Compositions and methods for modulating left-right differentiation factor (LEFTY) and bone morphogenic factor (BMP)” (CZ Biohub SF LLC, priority 2018, dated 2024).
Where two headings read alike, the source gives them in different places.

Key:
ACVR2B = experiment: Proximity ligation assay with other TGF-β receptors; type: binding
Method: (§1) FIGS. 5I-5J: LEFTY1 preferentially interacts with BMPR2. […] BMP7-BMPR2 interaction was used as a positive control, and mouse and rabbit IgGs were used as technical negative controls. The interaction of LEFTY with Wnt receptor LRP6 was analyzed as a biological negative control. […] Data are represented as median±S.D. Statistical analysis, one-way ANOVA post-hoc Tukey multiple comparison, ****p<0.0001, ***p<0.001; unless stated analysis is non-significant with p>0.05.
Next, we assessed the interaction of LEFTY with different type I and type II TGF-β receptors. BMP7-BMPR2 interaction was used as a positive control, and mouse and rabbit IgGs were used as technical negative controls. We also analyzed the interaction of LEFTY with Wnt receptor LRP6 as a biological negative control.

BMPR2 [1] = experiment: In situ target-mediated (proximity) ligation assay, BMPR2; type: binding
From the text: (§2) FIGS. 5A-5H. LEFTY1 inhibits pSMAD2 and pSMAD5 in the basal mammary epithelial cells. […] KRT8 was used to stain the luminal cells and SMA for basal cells (Magnification 400×). […] Gapdh was used as a housekeeping gene. […] Ten different fields were counted per condition (n=3). Data are represented as median±S.D. Statistical analysis, (a and b) Student's T-test, * p<0.05; (h) One-way ANOVA with Dunnet's adjustment, ****p<0.0001.
as §1
Since BMPR2 is upstream of pSMAD1/5/8, we reasoned that BMPR2 could serve as a common BMP Type II receptor that mediates the BMP7/LEFTY1 axis. […] The interaction between BMP7 and BMPR2 was used as a positive control (p<0.0001) (FIG. 5G-5H and FIG. 7B).
Next, we assessed the interaction of LEFTY with different type I and type II TGF-β receptors. […] We also analyzed the interaction of LEFTY with Wnt receptor LRP6 as a biological negative control. […]

pSMAD2 = experiment: Western-blot of pSMAD2 in Comma-D mammary epithelial cells; type: cell-based, mouse; conditions: Comma-D cells blocked with LEFTY1 200 ng/ml 1 hour, stimulated with BMP7 and Nodal 50 ng/ml 30 minutes
Method: (§3) FIGS. 4J-4L. LEFTY1 inhibits pSMAD2 and pSMAD5 in Comma-D mouse mammary epithelial cells. […] Comma-D cells were serum starved 16 hours and blocked with LEFTY1 (200 ng/ml) for 1 hour and stimulated with BMP7 (50 ng/ml) and Nodal (50 ng/ml) for 30 minutes in serum free media. Cells were harvested in 1×RIPA Buffer with 1× protease and phosphatase inhibitors on ice. Lysates were diluted in 4× sample buffer and boiled at 95° C. for 5 minutes and then run on a 10% SDS-page gradient gels at 100V for 1 hour. […] The membranes were incubated with either pSMAD2, pSMAD5, total SMAD2/3 or SMAD1/5/8 antibodies overnight. Incubation with secondary antibodies containing fluorophores at 1:20,000 dilution (IRDye 800CW conjugated goat anti-rabbit #926-32211, IRDye 680 conjugated goat anti-mouse antibodies #926-32220, LI-COR Biosciences, Lincoln, NE) enabled visualization on the Odyssey Infrared Imaging System from LI-COR Biosciences. […] Data are represented as median±S.D. Statistical analysis, one-way ANOVA with post-hoc Tukey multiple comparison, ****p<0.0001, ***p<0.001; unless stated analysis is non-significant with p>0.05.

pSMAD5 activation = experiment: pGL3 BRE-luciferase reporter in 3T3-L1 fibroblasts; type: cell-based; conditions: 16 hours
Method: (§4) FIGS. 7A-7E. LEFTY1 interaction with BMPR2 inhibits the phosphorylation of SMAD5. […] Ten different fields were counted per condition (n=3). […] 48 hours after transfection, cells were washed and incubated with different concentrations of BMP7 (from 0-800 ng/ml) for 16 hours prior to collection of the cells. […] 48 hours after transfection, cells were washed and incubated with different concentrations of LEFTY1 (from 0-200 ng/ml) for 16 hours prior to collection of the cells. […] 48 hours after transfection, cells were washed and incubated with different concentrations of BMP7 and LEFTY1 at the indicated concentrations for 16 hours prior to collection of the cells. Data are represented as median±S.D. Statistical analysis, one-way ANOVA with Dunnet's adjustment, *p<0.05; **p<0.01; ****p<0.0001.
FIGS. 7F-7I: pSMAD5 activation in the presence of LEFTY1, BMP2 and BMP4. […] 48 hours after transfection, cells were washed and incubated with different concentrations of BMP2 (from 0-800 ng/ml) for 16 hours prior to collection of the cells. […] 48 hours after transfection, cells were washed and incubated with different concentrations of BMP2 and LEFTY1 for 16 hours prior to collection of the cells. FIG. 7H and FIG. 7I show 3T3-L1 fibroblasts transfected with pGL3 BRE-luciferase plasmid. […]
We also evaluated whether LEFTY1 could inhibit pSMAD5 activation induced by other BMPs. […]

BMPR2 [2] = experiment: LEFTY1 and BMPR2 immunoprecipitation assays; type: binding; conditions: both directions
From the text: as §2, §4
Since BMPR2 is upstream of pSMAD1/5/8, we reasoned that BMPR2 could serve as a common BMP Type II receptor that mediates the BMP7/LEFTY1 axis. […]

pSMAD5 = experiment: Western-blot of pSMAD5 in Comma-D mammary epithelial cells; type: cell-based, mouse; conditions: Comma-D cells blocked with LEFTY1 200 ng/ml 1 hour, stimulated with BMP7 and Nodal 50 ng/ml 30 minutes
Method: as §3

interaction with other TGF-β receptors, ACVR2B (ACVR2B): also interacted | inhibition of pSMAD5 activation induced by BMP2 or BMP4 (pSMAD5 activation): less of an inhibitory effect | binding of LEFTY1 to BMPR2 (pull-down) (BMPR2 [2]): able to detect the binding
B1: LEFTY1: left-right determination factor 1, secreted TGF-β superfamily protein; generic LEFTY may mean LEFTY1 or LEFTY2 (protein, UniProt O75610 77-366, looked up)
Left-right determination …: RFSQSFREVAGRFLALEASTHLLVFGMEQRLPPNSELVQAVLRLFQEPVPKAALHRHGRLSPRSARARVTVEWLRVRDDGSNRTSLIDSRLVSVHESGWKAFDVTEAVNFWQQLSRPRQPLLLQVSVQREHLGPLASGAHKLVRFASQGAPAGLGEPQLELHTLDLGDYGAQGDCDPEAPMTEGTRCCRQEMYIDLQGMKWAENWVLEPPGFLAYECVGTCRQPPEALAFKWPFLGPRQCIASETDSLPMIVSIKEGGRTRPQVVSLPNMRVQKCSCASDGALVPRRLQP
protein interaction with BMPR2 (BMPR2 [1]): significant protein interaction | protein interaction with BMPR2 (BMPR2 [1]; listed as LEFTY): interacted preferentially | pSMAD2 signal (pSMAD2): inhibited | inhibition of BMP7-mediated pSMAD5 activation (pSMAD5 activation): inhibit BMP7-mediated pSMAD5 activation in a dose-dependent fashion | pSMAD5 signal (pSMAD5): inhibited
